Test results reported in patent US20180030090A1 (AGENCY FOR SCIENCE TECHNOLOGY AND RESEARCH, published 2018).
Bridges are numbered along the chain shown (N, C = ends). [ ]: non-standard residue; d: D form. R8 = C=CCCCCCC[C@@](C)(N)C(=O)O; S5 = C=CCCC[C@](C)(N)C(=O)O; Ahx = NCCCCCC(=O)O

Experiments:
Mdm2 in murine T22 cells = Mdm2 in murine T22 cells (murine, UniProt P23804 1-489, limits assumed); assay: cell-based or functional assay
Mdm2 (1-125) = biological target: T1, Mdm2 (1-125) (UniProt Q00987 1-125); assay: competitive fluorescence anisotropy, displacement of FAM-labelled 12-1 peptide from Mdm2 (1-125); apparent Kd
T1 construct: range 1-125; also called N-terminal domain of Mdm2; Mdm2 (1 to 125)
T1 sequence (Q00987 1-125 limits assumed): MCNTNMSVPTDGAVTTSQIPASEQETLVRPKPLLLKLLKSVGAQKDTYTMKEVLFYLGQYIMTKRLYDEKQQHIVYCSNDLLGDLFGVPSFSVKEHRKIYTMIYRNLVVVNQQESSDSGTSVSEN
Description: All titrations were carried out in triplicate.

Mdm2 in murine T22 cells, sequence (P23804 whole entry): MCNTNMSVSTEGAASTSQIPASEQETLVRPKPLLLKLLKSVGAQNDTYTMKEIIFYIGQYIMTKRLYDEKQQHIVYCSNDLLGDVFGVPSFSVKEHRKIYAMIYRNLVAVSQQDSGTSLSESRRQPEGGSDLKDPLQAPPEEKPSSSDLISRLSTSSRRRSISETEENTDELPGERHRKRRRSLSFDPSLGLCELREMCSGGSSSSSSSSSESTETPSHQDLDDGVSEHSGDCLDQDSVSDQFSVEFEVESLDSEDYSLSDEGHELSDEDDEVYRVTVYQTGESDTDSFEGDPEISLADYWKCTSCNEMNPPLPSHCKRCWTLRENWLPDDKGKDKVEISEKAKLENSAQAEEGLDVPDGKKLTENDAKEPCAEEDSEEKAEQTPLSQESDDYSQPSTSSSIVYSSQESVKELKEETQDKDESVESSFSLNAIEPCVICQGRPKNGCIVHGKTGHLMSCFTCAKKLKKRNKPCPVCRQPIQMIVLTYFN

Row | Binder | T22 IC50 (0% µM), T22 p53 reporter assay without serum (Mdm2 in murine T22 cells) | T22 Ic50 (10% µM), T22 p53 reporter assay with 10% fetal calf serum (Mdm2 in murine T22 cells) | Kd (Mdm2 (1-125))
1 | Ac-TSF[R8]EYWALL[S5]-NH2 (staple 4-11) [sMTide-02 (capped), Ac-TSFX8EYWALLS5-NH2] | 2.75 µM | 17.9 µM | –
2 | Ac-KK[Ahx]TSF[R8]EYWALL[S5]ENF-NH2 (staple 7-14) [YS-07 (capped), Ac-KK-Ahx-TSFX8EYWALLS5ENF-NH2] | ~0.78 µM | 9.95 µM | 24.4 nM
